Measured values taken from patent US20240294593A1 (Genentech, published 2024).
Where a chain is given by its changes, count along the chain named. In names and notes the source's numbering stands.

B1: H1.151_L1 (antibody, V domains shown)
VH: EVQLVESGGGLVQPGGSLRLSCAASGFTFSSFGMHWVRQAPGKGLEWVSYISSGSSIIYYADSVKGRFTISRDNAKNSLYLQMNSLRAEDTAVYYCARGGRLVFSPDYWGQGTLVTVSS
VL: DIVMTQSPDSLAVSLGERATINCKSSQSLLNSGNQKNYLTWYQQKPGQPPKLLIYWASTRESGVPDRFTGSGSGTDFTLTISSLQAEDVAVYYCQNDYSYPFTFGSGTKLEIKR
notes: also called VH-W112F; Kabat 100
B2: H1.147_L1 (antibody, V domains shown)
VH: B1 VH with V103Q, F104W
VL: B1 VL
notes: also called VH-V111Q; Kabat 99
B3: H1.148_L1 (antibody, V domains shown)
VH: B1 VH with V103W, F104W
VL: B1 VL
notes: also called VH-V111W; Kabat 99
B4: H1_L1.87 (antibody, V domains shown)
VH: B1 VH with F104W
VL: B1 VL with E61H
notes: also called VL-E61H; Kabat 55
B5: H1_L1.82 (antibody, V domains shown)
VH: B1 VH with F104W
VL: B1 VL with T59K
notes: also called VL-T59K; Kabat 53
B6: H1_L1.79 (antibody, V domains shown)
VH: B1 VH with F104W
VL: B1 VL with T59Q
notes: also called VL-T59Q; Kabat 53
B7: H1_L1.85 (antibody, V domains shown)
VH: B1 VH with F104W
VL: B1 VL with E61K
notes: also called VL-E61K; Kabat 55
B8: H1_L1.81 (antibody, V domains shown)
VH: B1 VH with F104W
VL: B1 VL with T59D
notes: also called VL-T59D; Kabat 53
B9: H1_L1.88 (antibody, V domains shown)
VH: B1 VH with F104W
VL: B1 VL with E61A
notes: also called VL-E61A; Kabat 55
B10: H1_L1.86 (antibody, V domains shown)
VH: B1 VH with F104W
VL: B1 VL with E61S
notes: also called VL-E61S; Kabat 55
B11: H1_L1.89 (antibody, V domains shown)
VH: B1 VH with F104W
VL: B1 VL with E61G
notes: also called VL-E61G; Kabat 55
B12: H1_L1.80 (antibody, V domains shown)
VH: B1 VH with F104W
VL: B1 VL with T59H
notes: also called VL-T59H; Kabat 53
B13: H1_L1.84 (antibody, V domains shown)
VH: B1 VH with F104W
VL: B1 VL with E61Q
notes: also called VL-E61Q; Kabat 55
B14: H1_L1.83 (antibody, V domains shown)
VH: B1 VH with F104W
VL: B1 VL with T59Y
notes: also called VL-T59Y; Kabat 53
B15: H1_L1.78 (antibody, V domains shown)
VH: B1 VH with F104W
VL: B1 VL with T59I
notes: also called VL-T59I; Kabat 53

target: T1, human PD-1-His (human, UniProt Q15116 25-167, limits assumed); experiment: Octet
T1 construct: Antigen of the Octet assays; not shown: His tag
T1 sequence (Q15116 25-167 limits assumed): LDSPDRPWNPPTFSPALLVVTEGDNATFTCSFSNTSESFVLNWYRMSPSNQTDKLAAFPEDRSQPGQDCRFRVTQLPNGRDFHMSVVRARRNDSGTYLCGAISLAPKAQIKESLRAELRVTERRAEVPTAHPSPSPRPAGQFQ

Binder | Kd | koff | kon
B1 | 309 nM | 0.087 s⁻¹ | 282000 M⁻¹ s⁻¹
B2 | 92.3 nM | 0.013 s⁻¹ | 140000 M⁻¹ s⁻¹
B3 | 77.5 nM | 0.0112 s⁻¹ | 144000 M⁻¹ s⁻¹

target: T1, human PD-1-His; experiment: Octet [D00120 Figure 65H]
Excerpt: In particular, anti-human IgG-Fc (AHC) biosensors were used to capture the test articles and dipped into multiple concentrations of PD-1.

Binder | Kd | koff | kon
B4 | 50.9 nM | 0.00552 s⁻¹ | 109000 M⁻¹ s⁻¹
B5 | 52.6 nM | 0.00602 s⁻¹ | 114000 M⁻¹ s⁻¹
B6 | 55.5 nM | 0.00731 s⁻¹ | 132000 M⁻¹ s⁻¹
B7 | 31.8 nM | 0.00316 s⁻¹ | 99400 M⁻¹ s⁻¹
B8 | 51.4 nM | 0.00606 s⁻¹ | 118000 M⁻¹ s⁻¹
B9 | 43.3 nM | 0.00411 s⁻¹ | 95000 M⁻¹ s⁻¹
B10 | 40.6 nM | 0.0047 s⁻¹ | 116000 M⁻¹ s⁻¹
B11 | 43.9 nM | 0.00403 s⁻¹ | 91900 M⁻¹ s⁻¹
B12 | 51 nM | 0.00578 s⁻¹ | 113000 M⁻¹ s⁻¹
B13 | 46 nM | 0.00478 s⁻¹ | 104000 M⁻¹ s⁻¹
B14 | 64.3 nM | 0.00603 s⁻¹ | 93800 M⁻¹ s⁻¹
B15 | 56.8 nM | 0.00581 s⁻¹ | 102000 M⁻¹ s⁻¹
